Target: human IL-10 receptor (hIL-10R α and β chains) on HEK-Blue IL-10 reporter cells (human) (UniProt Q13651)
Experiment: cell-based or functional assay

human IL-10 receptor (hIL-10R α and β chains) on HEK-Blue IL-10 reporter cells (human), sequence (Q13651 22-578, chain 1 of 2): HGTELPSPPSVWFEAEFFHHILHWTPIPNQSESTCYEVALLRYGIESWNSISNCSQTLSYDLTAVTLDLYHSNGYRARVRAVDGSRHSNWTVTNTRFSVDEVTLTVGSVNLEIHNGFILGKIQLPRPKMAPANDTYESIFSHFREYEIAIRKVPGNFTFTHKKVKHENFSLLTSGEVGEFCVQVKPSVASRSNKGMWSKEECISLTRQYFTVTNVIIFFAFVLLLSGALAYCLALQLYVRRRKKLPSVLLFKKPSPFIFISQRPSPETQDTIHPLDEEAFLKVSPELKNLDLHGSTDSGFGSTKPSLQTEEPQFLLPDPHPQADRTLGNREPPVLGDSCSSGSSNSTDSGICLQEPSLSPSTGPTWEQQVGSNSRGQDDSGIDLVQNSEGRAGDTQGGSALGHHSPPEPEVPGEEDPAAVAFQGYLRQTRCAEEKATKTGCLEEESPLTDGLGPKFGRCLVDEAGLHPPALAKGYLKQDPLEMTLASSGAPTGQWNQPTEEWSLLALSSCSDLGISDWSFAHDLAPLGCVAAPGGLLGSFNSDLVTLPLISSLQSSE
human IL-10 receptor (hIL-10R α and β chains) on HEK-Blue IL-10 reporter cells (human), sequence (Q08334 20-325, chain 2 of 2, further chain): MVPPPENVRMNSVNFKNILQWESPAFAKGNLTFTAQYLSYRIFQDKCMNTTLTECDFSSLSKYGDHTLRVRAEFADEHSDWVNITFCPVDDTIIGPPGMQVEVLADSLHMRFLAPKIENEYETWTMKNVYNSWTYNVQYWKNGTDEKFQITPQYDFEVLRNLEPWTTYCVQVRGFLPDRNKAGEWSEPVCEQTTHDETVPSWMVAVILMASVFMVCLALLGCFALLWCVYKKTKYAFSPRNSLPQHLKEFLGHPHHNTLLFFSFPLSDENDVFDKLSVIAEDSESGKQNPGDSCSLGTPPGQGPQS

Substance: Recombinant Animal-Free Human IL-10 (Shenandoah Biotechnology, Catalog No. 100-83AF) (from UniProt P22301 19-178) (ligand)
- Abs 630 (25 nM): 2.08 Abs 630
- Abs 630 (100 nM): 2.04 Abs 630

Reference: patent US20250376528A1
